Reference: the supplement of paper PMC10567573
± gives the standard deviation.

Test: protein stability index of a GFP-peptide fusion (GPS, HEK-293T) (PSI 1-6); higher = more stable
[1] = treatment: DMSO, c terminus: a fixed tail appended
[2] = treatment: MLN4924 1 uM, 8 h, c terminus: a fixed tail appended
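Note: 24-mer peptide tiles fused after GFP, lentivirally expressed, FACS-sorted into six equal bins by GFP/DsRed ratio, decoded by Illumina sequencing, PSI is the read-weighted mean bin number.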

Sequence	protein stability index [1]	protein stability index [2]	protein stability index (treatment: DMSO, c terminus: native)	protein stability index (treatment: MLN4924 1 uM, 8 h, c terminus: native)
VRERILGADNIDVSHPIIYRGAVY [FEM1B]	2.13 ± 0.29	2.57 ± 0.32		
VRFLEQQNAALRGELSQARGQEPA [PRPH]	4.57 ± 0.27	4.41 ± 0.18		
VSPGVLVLLAVLPVLLLQITVGLV [MOG]	2.92 ± 0.39	2.96 ± 0.51		
VSPRRIFANGHTYHINSISVNSDC [PPP2R2C]	2.67 ± 0.27	2.87 ± 0.19		
VSVFIGVLIDLWKITKVMDVRLDR [CLPTM1]	3.19 ± 0.1	2.97 ± 0.35		
VTSIPSVSDSLTWREFHYIQSKLG [STEAP1]	2.66 ± 0.24	2.69 ± 0.18		
VVDIFQTVKMLRTQRPAMVQTEDQ [PTPRD]	3.23 ± 0.32	3.06 ± 0.27		
VVLGNIIKKKGWRRSSLVITTKIF [KCNAB2]	2.86 ± 0.34	2.74 ± 0.55		
VVLTFITPMLNPLIYTLKNAEMKS [OR4A15]	3.22 ± 0.073	2.99 ± 0.63		
WAEIAKMLPGRTDNAVKNHWNSTI [MYBL2]	2.18 ± 0.28	2.16 ± 0.18		
WCLRVNPKGLDDESKDYLSLYLLL [SPOPL]	2.96 ± 0.41	3.08 ± 0.69		
WEWSPAGLQSYQQALLRISLDKVQ [SERTAD3]	2.48 ± 0.58	2.49 ± 0.69		
WHDVQVSSAYVKTSEKLGEWNEKV [TPD52L2]	3.64 ± 0.26	3.8 ± 0.24		
WKYFKGNFYYFSLIPKTWYSAEQF [CD207]	3.12 ± 0.47	2.78 ± 0.71		
WNDAPCDKTFLFICKRPYVPSEP [CD207]			1.99 ± 0.96	2.13 ± 0.13
WPLRGKREAMLEMLLQHQICKEVQ [SPAG8]	2.17 ± 0.4	2.11 ± 0.24		
WQYLSGGKVKLQQNPGKFDELDMS [TBC1D10A]	3.16 ± 0.32	3.35 ± 0.26		
YALDMQQSNLEPLSPMTASSFLSF [FEM1A]	2.6 ± 0.23	2.47 ± 0.085		
YCRLKKCLKVGMRREAVQRGRMPP [NR2F2]	2.84 ± 0.39	2.77 ± 0.26		
YDSQPQDVLGIRQLERPLPLTSVC [TRAF3IP2]	3.68 ± 0.065	3.74 ± 0.23		

Sequence	protein stability index [1]	protein stability index [2]	protein stability index (treatment: DMSO, c terminus: native)	protein stability index (treatment: MLN4924 1 uM, 8 h, c terminus: native)
YENFLEDKALMIAMEYAPGGTLAE [NEK8]	3.54 ± 0.13	3.98 ± 0.2		
YERLARILLQEIPIRSISLRSCYF [FBXO39]	2.92 ± 0.28	2.56 ± 0.26		
YGSCYTVDGVWTAQRPGITHGVGL [SCNN1D]	2.69 ± 0.5	2.2 ± 0.15		
YIMAFDIKSEDMLKILKPSIPLER [FBXO33]	2.34 ± 0.44	2.67 ± 0.4		
YISHRELGDCMRTLGYMPTEMELL [CABP4]	2.27 ± 0.34	2.48 ± 0.43		
YKKGRMMKDISNLEENDETRFILS [SLC6A17]	3.35 ± 0.29	3.09 ± 0.39		
YLDKAPPPGLPAETIKDLMRQFLR [CDK4]	4.45 ± 0.2	4.23 ± 0.39		
YLGSLQYRVWKKMLASVESVPFSF [TRIM35]	2.93 ± 0.63	2.33 ± 0.48		
YNNRGQIKYFRVDFYEAMDDYTSA [TTC32]	2.15 ± 0.29	2.35 ± 0.24		
YPEQSKGFHKAGSMLPPVNFSIVP [SPATS1]	2.65 ± 0.5	3.06 ± 0.69		
YQDMIYAVGGRDDTTELSSAERYN [KLHL20]	2.91 ± 0.66	3.52 ± 0.51		
YQELLNVKMALDIEIATYRKLLEG [PRPH]	2.22 ± 0.22	2.43 ± 0.081		
YRLLKCAPRGKNGFTPLHMAVDKD [FEM1A]	2.84 ± 0.22	2.96 ± 0.14		
YRQDDPSYRSFHSGGYGQDALGMD [CTNNB1]	3.89 ± 0.35	4.03 ± 0.14		
YSHLAYNNYRLGGNPSTNSRVTAS [SMARCE1]	3.3 ± 0.34	3.35 ± 0.18		
YSIGRSVEGRHLYVLEFSDHPGIH [CPN1]	2.07 ± 0.23	2.07 ± 0.12		
YSLLPQSTAPGLFLVSTHTGEVRT [PCDHGC5]	3.07 ± 0.14	3.07 ± 0.29		
YSQGRLSEAEEALYLIAKRNRKLK [SLC22A15]	2.81 ± 0.2	3 ± 0.063		
YVRMVFLALYVLFLADEEFDVVVC [ALG2]	3.1 ± 0.71	2.93 ± 1		
YWPLEKDSRIRFGFLTVTNLGVEN [PTPN9]	2.47 ± 0.36	2.43 ± 0.4		
